Data as given in US20240294650A1 (Alector, published 2024).

T1: human MerTK (human, UniProt Q12866 21-999)
T1 sequence: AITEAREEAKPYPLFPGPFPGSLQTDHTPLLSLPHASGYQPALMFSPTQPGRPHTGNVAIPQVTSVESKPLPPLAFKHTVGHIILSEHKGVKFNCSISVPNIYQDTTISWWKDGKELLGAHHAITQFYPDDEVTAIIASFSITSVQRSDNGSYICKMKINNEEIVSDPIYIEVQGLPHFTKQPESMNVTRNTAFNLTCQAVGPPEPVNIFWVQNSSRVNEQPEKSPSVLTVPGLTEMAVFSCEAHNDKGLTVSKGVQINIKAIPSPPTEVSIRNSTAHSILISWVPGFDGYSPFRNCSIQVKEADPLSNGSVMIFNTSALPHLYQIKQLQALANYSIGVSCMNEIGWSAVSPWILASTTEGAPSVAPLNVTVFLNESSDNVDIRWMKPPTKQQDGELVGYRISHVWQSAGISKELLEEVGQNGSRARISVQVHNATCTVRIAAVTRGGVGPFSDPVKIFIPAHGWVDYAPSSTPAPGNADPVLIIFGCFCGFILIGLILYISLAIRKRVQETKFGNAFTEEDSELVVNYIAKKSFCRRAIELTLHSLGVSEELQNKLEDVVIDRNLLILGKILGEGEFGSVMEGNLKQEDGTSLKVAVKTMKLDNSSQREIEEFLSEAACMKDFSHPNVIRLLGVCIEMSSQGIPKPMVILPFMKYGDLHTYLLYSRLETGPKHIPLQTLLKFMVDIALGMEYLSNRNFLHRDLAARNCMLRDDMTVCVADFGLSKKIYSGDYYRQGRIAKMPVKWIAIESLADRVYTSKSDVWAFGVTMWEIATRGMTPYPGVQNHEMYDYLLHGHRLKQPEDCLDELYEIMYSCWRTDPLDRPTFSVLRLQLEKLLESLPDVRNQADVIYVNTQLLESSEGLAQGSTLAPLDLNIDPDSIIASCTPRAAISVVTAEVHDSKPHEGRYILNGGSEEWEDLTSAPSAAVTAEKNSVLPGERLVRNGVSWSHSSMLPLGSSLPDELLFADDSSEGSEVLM

T2: recombinant human MerTK extracellular domain (human, UniProt Q12866 21-505)
T2 construct: also called human MerTK ECD; not shown: polyHis or TEVS/Thrombin/murine IgG2a-Fc tag
T2 sequence: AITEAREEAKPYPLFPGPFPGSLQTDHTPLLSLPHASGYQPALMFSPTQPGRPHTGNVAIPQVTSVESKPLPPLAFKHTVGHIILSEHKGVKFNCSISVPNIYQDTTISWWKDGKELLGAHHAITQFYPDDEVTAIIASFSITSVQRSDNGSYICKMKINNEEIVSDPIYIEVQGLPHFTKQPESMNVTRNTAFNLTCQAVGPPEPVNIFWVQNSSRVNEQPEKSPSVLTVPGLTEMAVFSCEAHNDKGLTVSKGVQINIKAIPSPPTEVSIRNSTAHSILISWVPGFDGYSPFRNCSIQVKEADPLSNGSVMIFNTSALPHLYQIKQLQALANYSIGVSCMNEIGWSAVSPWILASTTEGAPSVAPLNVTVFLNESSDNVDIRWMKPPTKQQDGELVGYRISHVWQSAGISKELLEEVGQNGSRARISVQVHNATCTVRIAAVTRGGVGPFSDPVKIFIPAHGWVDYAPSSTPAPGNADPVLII


What was measured:
[1] = target: T1, human MerTK; assay: cell-based or functional assay
[2] = target: T2, recombinant human MerTK extracellular …; assay: SPR Carterra LSA, Ab immobilised
Protocol: Binding kinetics of anti-MerTK IgG1 antibodies of the present disclosure to human, cyno, and murine MerTK were evaluated using a Carterra LSA instrument (Carterra, Salt Lake City, UT). […] A HC200M sensor chip (Carterra) was activated using the single channel flow cell with a 7-minute injection of a 1:1:1 mixture of 100 mM MES pH 5.5, 100 mM sulfo-NHS, 400 mM EDC (all reconstituted in MES pH 5.5; 100 μl of each mixed in vial immediately before running assay). After switching to the multi-channel array flow cell, the antibodies were injected over the activated chip in three 96-spot arrays for 10 minutes each. The remaining unconjugated active groups on the chip were then blocked by injecting 1M Ethanolamine pH 8.5 (Carterra) for 7 minutes using the single channel flow cell. The resulting sensor chip contained three spots for each antibody, at three different densities. Two independent experiments were performed as follows, resulting in an N of between one and six determinations for each antibody. Spots that yielded less than 25 RU of analyte binding were excluded from further analysis.
After priming with running buffer (HBS-TE, Carterra) with 0.5 mg/ml BSA (Sigma), the immobilized anti-MerTK antibodies were tested for their ability to bind to several forms of recombinant MerTK extracellular domain, including human, cynomolgus, and mouse orthologs as described above. Estimates of affinity were generated by injecting each analyte over the entire antibody array using the single channel flow cell. MerTK analytes were diluted with running buffer, in a series of six, three-fold serial dilutions starting from 1 μM for human and cynomolgus MerTK, and 600 nM for mouse MerTK. Analytes were injected for 5 minutes, and dissociation was followed for 10 minutes. After each analyte injection, antibodies were regenerated with either Protein A/G Elution Buffer (Thermo) with 1M NaCl (Teknova), or with 10 mM Glycine pH 2.5. Three buffer blanks were run between each series (one species per series). Data were processed and analyzed using NextGenKIT high-throughput kinetics analysis software (Carterra).

Fold increase in PAKT over IgG control [1] [fold] | Kd [2] [nM] | EC50 (nM), pAKT in SK-MEL-5 cells [1] [nM] | Binder
4.1 | 75 | – | MTK-223 (antibody, human IgG1, V domains shown) VH: DVQLQESGPGLVKPSQSLSLTCSVTGYSITSGYYWNWIRQFPGNKLEWMGYISYDGTNNYNPSLKNRISITRDTSENQFFLKLNSVTTEDTATYFCVRGAGYWGQGTTLTVSS VL: not shown
4.1 | 18 | 1.89 | MTK-229 (antibody, human IgG1, V domains shown) VH: QVQLQQSGPELVKPGASVKISCKASGYEFSRSWMNWVKQRPGKGLEWIGRIYPGDGDTNYKGKLKGQATLTADKSSSTAYMQLSSLTFEDSAVYFCARGGGYYYDSRYEGFVYWGQGTVVTVSA VL: QIVLTQSPAIMSASPGEEVTMTCSASSSVSYMHWYQQKSGTSPKRWIYDTSKLASGVSGRFSGSGSGTSYSLTISSMEAEDAATYYCQQWSSNPPITFGAGTKLELK
3.7 | 64 | – | MTK-213 (antibody, human IgG1, V domains shown) VH: QVQLQQPGAELVKPGASVKMSCKASGYTFTSYWITWVKQRPGQGHEWIGEIYPGIGSTNYNEKFKSKATLTVDTSSRTAYMQLSSLTSEDSAVYFCARGAYTKYYFDYWGQGTTLTVSS VL: DIVMTQSHKFMSTSVGDRVSITCKASQDVGDAVAWYQQKPGQTPKLLIYWASTRHTGVPDRFTGSGSGTDFTLTISNVQSEDLADYFCQQYSSYLMYTFGGGTKLEIK
4.3 | – | 0.65 | MTK-201 (antibody, human IgG1, V domains shown) VH: QVQLRQSGPGLVQPSQSLSITCTVSGFSLSNYGLHWVRQSPGKGLEWLGVIWSGGITDYNAAFISRLSIIKDNSRSQVFFKMNSLQADDTAIYYCARKGHDPYAMDFWGQGTSVTVSS VL: QIVLTQSPPIMSAFLGERVTMTCTASSSVSSSYLHWYRQMPGSSPKLWIYDTSNLASGVPARFSGSGSGTSYSLTISSMEAEDAATYYCHQYHHSPYTFGGGTKLEIK
4.7 | 99 | 1.89 | MTK-227 (antibody, human IgG1, V domains shown) VH: EVKLVESGGGLVQPGGSLSLSCAASGFTFTDNYMTWVRQPPGKALEWLGFSRNKANGYTTEYSASVKGRFTISRDSSQSILYLQMNALRAEDSGTYYCARFPPHYYAGGYFDVWGTGTTVTVSS VL: DIQMTQSPASLSASVGETVTITCRASENIYSYLAWYQQKQGKSPQLLVYNAKTLAEGVPSRFSGSGSGTQFSLKINSLQPADFGSYYCQHYYRTPPTFGGGTKLEIK
4.2 | 42 | 0.53 | MTK-228 (antibody, human IgG1, V domains shown) VH: QDQLQQSGPELVKPGASVKISCKASGYSFTSYYIHWVKQRPGQGLEWVGWIFPGNGNTKYNERFKGKATLTADTSSSTAYMQLSSLTSEDSAVYYCARLGLIYALDYWGQGTSVTVSS VL: DAVMTQTPLSLPVSLGDQASISCRSSQSLENSNGNTYLHWYLQKPGQSPQLLIYRVSNRFSGVLDRFSGSGSGTDFTLKISRVEAEDLGVYFCLQVTHVPFTFGSGTKLEIK
4.5 | 64 | – | MTK-218 (antibody, human IgG1, V domains shown) VH: QVQLQQSGPELVKPGTSVKISCKASGYSFTSYYIHWVKQRPGQGLDWIGWIFPGNRNTQYNEKFKGKATLTADTSSSTAYMQLSSLTSEDSAVYYCARLGLIYALDYWGQGTSVTVSS VL: DAVMTQTPLSLPVSLGDQASISCRSSQSLENSNGHTYLHWYLQKPGQSPQLLIYRVSNRFSGVQDRFSGSGSGTDFTLKISRVEAEDLGVYFCLQVTHVPFTFGSGTKLEIK
4.2 | 39 | 0.53 | MTK-226 (antibody, human IgG1, V domains shown) VH: QVQLQQSGPELVKPGASVKISCKASGYSFTSYYIHWVKQRPGQGLEWIGWIFPGNGNTKYNENFRGKATLTADTSSSTAYMQLSSLTSEDSAVYYCARLGLIYALDYWGQGTSVTVSS VL: DAVMTQTPLSLPVSLGDQASISCRSSQSLESSNGNTYLHWYLQKPGQSPQLLIYRVSNRFSGVLDRFSGSGSGTDFTLQISRVEAEDLGVYFCLQVTHVPFTFGSGTKLEIK
4 | 1.3 | – | MTK-211 (antibody, human IgG1, V domains shown) VH: QVQLQQSGAELMKPGASVKLSCKATGYTFTGYWIEWVKQRPGHGLEWIGEILPGSGGSNYNEKFKGKATFTADTSSNTAYIQLSSLTTEDSAIYCCARGEPSYFSDAGFAYWGQGTLVTVSA VL: QIVLTQSPAVMSASPGEKVTMTCSASSSITYMHWYQQKPGTSPKRWIYDTSKLASGVPARFSGSGSGTSYFLTISSMEAEDVATYYCHQRSTYPYTFGGGTKLEIM
3.5 | 440 | – | MTK-219 (antibody, human IgG1, V domains shown) VH: QVQLQQSGADLMKPGASVKLSCKATGNTFTGYWIEWVKQRPGHGLEWIGEILTGSGSTNYNERFKGKATFTADTSSNTAYMQLSSLTTEDSAIYYCAGSYFTNSWFPYWGQGSLVTVSA VL: DIVLTQSPASLAVSLGQRATISCRASESVDSYGNSFMHWYQQKPGQPPKLLIYRAYTLESGIPARFSGSGSRTDFTLTINPVEADDVATYYCQQSNEDPRTFGGGTKLEIK
4.6 | 130 | – | MTK-222 (antibody, human IgG1, V domains shown) VH: QVQLQQSGADLMKPGASVKLSCKATGYTFTGYWIEWVKQRPGHGLEWIGEILTGSGSSNYNEKFKGKATFTADSSSNTAFMQLSSLTTEDSAIYYCAGSYYSNSWFPYWGQGSLVTVSA VL: DIVLTQSPVSLAVSLGQRATISCRASESVDSYGSSFMHWYQQKPGQPPKLLIYRASSLESGIPARFSGSGSRTDFTLTINPVETDDVATYYCQQSNEDPRTFGGGTKLEIK
3.6 | 150 | – | MTK-220 (antibody, V domains shown) VH: EVQLVESGGGLVKPGGSLKLSCAASGFTFSDYGMHWVRQAPEKGLEWVAFISGGSGTIYYEDTVKGRFTISRDNAKNTLFLQMTSLRSEDTAMYYCTRGGNYFDYWGQGTTLTVSS VL: NIMLTQSPSSLAVSAGEKVTMTCKSSQSVLYSSNQKNYLAWYQQKPGQSPKLLIYWASTRESGVPDRFTGSGSGTDFTLTISNVQAEDLAVYYCHQYFSSWTFGGGTKLEIK
3.3 | 31 | 15 | MTK-210 (antibody, human IgG1, V domains shown) VH: QVQLQQSGPELVKPGASVKISCKASDYEFSRSWMNWVKQRPGKGLEWIGRIYPGDGDTNYNGKFKGKATLTADKSSNTAYMQLNSLTSEDSAVYFCARKGGYYYSISNYFDYWGQGTTLTVSS VL: QIVLTQSPAIMSASPGVKVTMTCSASSSVSYMHWYQQKPGSSPRLLIYDTSNLASGVPVRFSGSGSGTSYSLTISRMEAEDAATYYCQQWSSYPPYTFGGGTKLEIK
